Test results reported in article PMC3514461 (ACS chemical biology, 2012).

Target: the molecule itself
Experiment: crystal structure

B1: hASRGL1-Thr168Ala (human asparaginase-like protein 1, processing-inactive, precursor-like variant) (enzyme, UniProt Q7L266 1-308, looked up)
chain: MNPIVVVHGGGAGPISKDRKERVHQGMVRAATVGYGILREGGSAVDAVEGAVVALEDDPEFNAGCGSVLNTNGEVEMDASIMDGKDLSAGAVSAVQCIANPIKLARLVMEKTPHCFLTDQGAAQFAAAMGVPEIPGEKLVTERNKKRLEKEKHEKGAQKTDCQKNLGAVGAVALDCKGNVAYATSTGGIVNKMVGRVGDSPCLGAGGYADNDIGAVSTTGHGESILKVNLARLTLFHIEQGKTVEEAADLSLGYMKSRVKGLGGLIVVSKTGDWVAKWTSTSMPWAAAKDGKLHFGIDPDDTTITDLP
  binding result: binds
